Experimental data as given in article PMC6332680.

Assays:
[1] = target: E. coli ribose-phosphate pyrophosphokinase (EcKPRS) (E. coli (strain K12)); assay: SEC; size exclusion chromatography, data not shown
[2] = target: E. coli ribose-phosphate pyrophosphokinase (EcKPRS) (E. coli (strain K12)); assay: crystal structure; 2.22 Å, space group C222_(1), three molecules in the asymmetric unit; hexamer from 3 molecules of the asymmetric unit and 3 symmetry related molecules; crystallised with 0.2 M magnesium chloride, 0.1 M HEPES pH 7.5, 30% PEG 400, 1 mM ADP, 291 K

Substance: E. coli ribose-phosphate pyrophosphokinase (EcKPRS) (enzyme)
- stoichiometry N [1]: 6
- stoichiometry N [2]: 6
